Laboratory results taken from FireProtDB (doi:10.1021/bi300982v).

B1: Cytochrome c-552, P04164 (parent)
chain: QADGAKIYAQCAGCHQQNGQGIPGAFPPLAGHVAEILAKEGGREYLILVLLYGLQGQIEVKGMKYNGVMSSFAQLKDEEIAAVLNHIATAWGDAKKVKGFKPFTAEEVKKLRAKKLTPQQVLAERKKLGLK

Variants of: B1
Conditions: Thermus thermophilus, pH 7, sodium phosphate 50 mM, transition: 2, reversible: yes, structure 1C52, whole UniProt chain shown; for denaturant midpoint (higher = more stable): 25 °C, GdnHCl; for Tm / change of melting temperature, mutant - wild type (higher = more stable) / heat capacity change of unfolding / unfolding enthalpy (calorimetric) / unfolding free energy: Thermal, CD

| Variant | denaturant midpoint (higher = more stable) (absorbance) [M] | denaturant midpoint (higher = more stable) (far-UV-CD) [M] | denaturant midpoint (higher = more stable) (heme-CD) [M] | Tm [°C] | change of melting temperature, mutant - wild type (higher = more stable) [°C] | heat capacity change of unfolding [kcal/mol/K] | unfolding enthalpy (calorimetric) [kcal/mol] | unfolding free energy [kcal/mol] |
| --- | --- | --- | --- | --- | --- | --- | --- | --- |
| M69H | 3.7 | 4 | 3.3 | 99 | 4 | 0.51 | 59.3 | 8.13 |
| M69A | 4.2 | 4.7 | 4.5 | 93 | -2 | 0.29 | 28.2 | 2.39 |
